In article PMC4238996 (PLoS Neglected Tropical Diseases, 2014) one finds response data, which are given here for seven variants.

B1: unnamed (parent)
chain 1: MQQPTEHTTPMDSLAPPALVIKTPHQAFTAHAAQGPVVIGRDAPAQVRIPDERISRAHVRVTYTSTGWVAVDMSSNGTFVNGVQQATIPITDGLTIHLGHPLEGIAISFSYTIAPPLAVDDATEHIEDTSDPKMVRVGAEIAARREELGLPKRELDRRGVVGQATMTDIEKGRRFPRPFTRDKIEAVLGWPRGHIMWLYEQDIQPDEERTHVLTATTPVPEITGATKMALKGFTAAADSLPPEDDPAFTDRVGALLADLRELESVAASATHSAHGTSAAALVLSDVRKLYKALMLRAAGAPGATLGQRFYAARYRAELTTQDAAAAAGLPVAIIEAAEADAPLDPAATAAVQALLTSLLSQR
chain 2: MALPLGTVVAGYVIEGVLGSGGMGTVYLARHPTLPRSDALKILSAELSQDEQFRVRFIREADLAATLSHPNIVTVFNRGETDDGQLWIAMQYVEGTTASDLHATVLTPARVAAIITDVGAALDYAHSRRVLHRDIKPSNFLVSADHERVLLADFGIARAFDDTTLTAIGSLVGTASYAAPEAIQGGSVDQRADVYSLGCALFRLLTGRAPYEDLRGPAMLMAHVLQPIPRPSHIVVGLPPAIDDVIAVAMAKDPAARFPTAGALAGAARAALSGQPLPQAPPGGPKTRIWAAPPLSYPTTRPPGISGGAISPAGFAGAAHPGLAGAASSSDERGGPRAPRRRKR

Variants of B1 are the subject of one test. Briefly: sandwich ELISA. To be noted: with partner chain of the complex shown; His6-PknQ adsorbed on a 96-well plate; equimolar amounts of GST-tagged substrates; parent: 2; read off a plot. (In general: An ELISA detects its analyte on a solid surface through an enzyme-linked reagent.)
In the case of chain 1 MQQPTEHTTPMDSLAPPALVIKTPHQAFTAHAAQGPVVIGADAPAQVRIPDERISRAHVRVTYTSTGWVAVDMSSNGTFVNGVQQATIPITDGLTIHLGHPLEGIAISFSYTIAPPLAVDDATEHIEDTSDPKMVRVGAEIAARREELGLPKRELDRRGVVGQATMTDIEKGRRFPRPFTRDKIEAVLGWPRGHIMWLYEQDIQPDEERTHVLTATTPVPEITGATKMALKGFTAAADSLPPEDDPAFTDRVGALLADLRELESVAASATHSAHGTSAAALVLSDVRKLYKALMLRAAGAPGATLGQRFYAARYRAELTTQDAAAAAGLPVAIIEAAEADAPLDPAATAAVQALLTSLLSQR [chain 1 R41A], the response turned out to be 0.95 O.D. 490 nm.
As to chain 1 MQQPTEHTTPMDSLAPPALVIKTPHQAFTAHAAQGPVVIGRDAPAQVRIPDERIARAHVRVTYTSTGWVAVDMSSNGTFVNGVQQATIPITDGLTIHLGHPLEGIAISFSYTIAPPLAVDDATEHIEDTSDPKMVRVGAEIAARREELGLPKRELDRRGVVGQATMTDIEKGRRFPRPFTRDKIEAVLGWPRGHIMWLYEQDIQPDEERTHVLTATTPVPEITGATKMALKGFTAAADSLPPEDDPAFTDRVGALLADLRELESVAASATHSAHGTSAAALVLSDVRKLYKALMLRAAGAPGATLGQRFYAARYRAELTTQDAAAAAGLPVAIIEAAEADAPLDPAATAAVQALLTSLLSQR [chain 1 S55A], the response was 0.38 O.D. 490 nm.

Variants of B1 are the subject of the next test. Briefly: ELISA. To be noted: with partner chain of the complex shown; read at the highest MupFHA concentration point, x about 1160 µM; parent: 1.6; read off a plot.
Take chain 2 MALPLGTVVAGYVIEGVLGSGGMGTVYLARHPTLPRSDALKILSAELSQDEQFRVRFIREADLAATLSHPNIVTVFNRGETDDGQLWIAMQYVEGTTASDLHATVLTPARVAAIITDVGAALDYAHSRRVLHRDIKPSNFLVSADHERVLLADFGIARAFDDTTLAAIGSLVGTASYAAPEAIQGGSVDQRADVYSLGCALFRLLTGRAPYEDLRGPAMLMAHVLQPIPRPSHIVVGLPPAIDDVIAVAMAKDPAARFPTAGALAGAARAALSGQPLPQAPPGGPKTRIWAAPPLSYPTTRPPGISGGAISPAGFAGAAHPGLAGAASSSDERGGPRAPRRRKR [chain 2 T166A]: the response is 1.5 O.D. 490 nm.
Consider chain 2 MALPLGTVVAGYVIEGVLGSGGMGTVYLARHPTLPRSDALMILSAELSQDEQFRVRFIREADLAATLSHPNIVTVFNRGETDDGQLWIAMQYVEGTTASDLHATVLTPARVAAIITDVGAALDYAHSRRVLHRDIKPSNFLVSADHERVLLADFGIARAFDDTTLTAIGSLVGTASYAAPEAIQGGSVDQRADVYSLGCALFRLLTGRAPYEDLRGPAMLMAHVLQPIPRPSHIVVGLPPAIDDVIAVAMAKDPAARFPTAGALAGAARAALSGQPLPQAPPGGPKTRIWAAPPLSYPTTRPPGISGGAISPAGFAGAAHPGLAGAASSSDERGGPRAPRRRKR [chain 2 K41M], for which the response amounted to 0.26 O.D. 490 nm.
Regarding chain 2 MALPLGTVVAGYVIEGVLGSGGMGTVYLARHPTLPRSDALKILSAELSQDEQFRVRFIREADLAATLSHPNIVTVFNRGETDDGQLWIAMQYVEGTTASDLHATVLTPARVAAIITDVGAALDYAHSRRVLHRDIKPSNFLVSADHERVLLADFGIARAFDDTTLTAIGALVGTASYAAPEAIQGGSVDQRADVYSLGCALFRLLTGRAPYEDLRGPAMLMAHVLQPIPRPSHIVVGLPPAIDDVIAVAMAKDPAARFPTAGALAGAARAALSGQPLPQAPPGGPKTRIWAAPPLSYPTTRPPGISGGAISPAGFAGAAHPGLAGAASSSDERGGPRAPRRRKR [chain 2 S170A], the response was found to be 0.21 O.D. 490 nm.

The same test, now with this note: with partner chain of the complex shown; read at the highest MupFHA concentration point, x about 2320 µM; parent: 1; read off a plot.
In the case of chain 2 MALPLGTVVAGYVIEGVLGSGGMGTVYLARHPTLPRSDALKILSAELSQDEQFRVRFIREADLAATLSHPNIVTVFNRGETDDGQLWIAMQYVEGTTASDLHATVLTPARVAAIITDVGAALDYAHSRRVLHRDIKPSNFLVSADHERVLLADFGIARAFDDTTLTAIGSLVGAASYAAPEAIQGGSVDQRADVYSLGCALFRLLTGRAPYEDLRGPAMLMAHVLQPIPRPSHIVVGLPPAIDDVIAVAMAKDPAARFPTAGALAGAARAALSGQPLPQAPPGGPKTRIWAAPPLSYPTTRPPGISGGAISPAGFAGAAHPGLAGAASSSDERGGPRAPRRRKR [chain 2 T174A], the response amounted to 0.58 O.D. 490 nm.
For the variant chain 2 MALPLGTVVAGYVIEGVLGSGGMGTVYLARHPTLPRSDALKILSAELSQDEQFRVRFIREADLAATLSHPNIVTVFNRGETDDGQLWIAMQYVEGTTASDLHATVLTPARVAAIITDVGAALDYAHSRRVLHRDIKPSNFLVSADHERVLLADFGIARAFDDTTLTAIGSLVGTASYAAPEAIQGGSVDQRADVYSLGCALFRLLTGRAPYEDLRGPAMLMAHVLQPIPRPSHIVVGLPPAIDDVIAVAMAKDPAARFPAAGALAGAARAALSGQPLPQAPPGGPKTRIWAAPPLSYPTTRPPGISGGAISPAGFAGAAHPGLAGAASSSDERGGPRAPRRRKR [chain 2 T260A], the response is 1 O.D. 490 nm.
For the variant chain 2 MALPLGTVVAGYVIEGVLGSGGMGTVYLARHPTLPRSDALKILSAELSQDEQFRVRFIREADLAATLSHPNIVTVFNRGETDDGQLWIAMQYVEGTTASDLHATVLTPARVAAIITDVGAALDYAHSRRVLHRDIKPSNFLVSADHERVLLADFGIARAFDDTTLTAIGALVGTASYAAPEAIQGGSVDQRADVYSLGCALFRLLTGRAPYEDLRGPAMLMAHVLQPIPRPSHIVVGLPPAIDDVIAVAMAKDPAARFPTAGALAGAARAALSGQPLPQAPPGGPKTRIWAAPPLSYPTTRPPGISGGAISPAGFAGAAHPGLAGAASSSDERGGPRAPRRRKR [chain 2 S170A], the response was 0.43 O.D. 490 nm.
